The nature of the data set: Corrosion resistance (Icorr, Ecorr, corrosion rate, Rp) of coated stainless steel. Format: physicochemical. The settings on record: pilin conjugates on stainless steel.

Bridges are numbered along the chain shown (N, C = ends). Where no end group is shown, it is not given here.

With “E-PAK: pilin peptide conjugated to an E-coil (negatively charged leucine zipper) peptide (DGLWKCTSDQDEQFIPKGCSR; disulfide 6-19; also: conjugated to E-coil peptide)”, under “Unmodified 0.0547”, the “Corrosion Rate” value is 0.1981 mpy. The Ecorr (Unmodified 4.2) worked out at 87.2 mV. Also, the Rp (Unmodified 303.141) is on record as 121.722 Ohms/cm^2. Also, the Icorr (Unmodified 802) was determined as 1940 nAmps.

These data come from US9422450B2, “Surface coated structures and methods” (ARCH BIOPHYSICS, INC., priority 2009, dated 2016).
